Experiment [1] addresses HIV-1 gp120 monomer, strain HxBc2 (HIV-1, strain HxBc2) (UniProt P04578). In words: SPR.
Experiment [2] has as its target HA H3 top domain (not stated (Figure 2 shows HA of influenza A virus X-31)) (UniProt P03437). In words: ELISA.

pKd: −log10 of the molar value.

In turn, “CVN2L0, engineered linker-free domain-swapped dimer of cyanovirin-N (designed binder)” gave a pKd in experiment [1] of 7.31.

“SUMO-CVN2L0 fusion protein (designed binder)” gave a pKd in experiment [2] of 6.26.

(Values after article PMC8231982.)
